Residue numbers refer to the chain shown, from its start. Values belong to the binder of their own block, whether it stands above or below them.
Assays:
[1] = molecular target: T1, recombinant human CTLA4 extracellular domain (human, UniProt P16410 36-161); test: SPR, human CTLA4 ECD immobilised
T1 construct: extracellular domain; also called huCTLA-4
T1 sequence (looked up): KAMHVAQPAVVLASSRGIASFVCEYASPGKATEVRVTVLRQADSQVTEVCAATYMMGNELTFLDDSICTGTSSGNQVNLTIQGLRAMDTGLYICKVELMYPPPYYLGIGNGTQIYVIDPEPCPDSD
Description: (§1) The CTLA4 extracellular domain (human or cynomolgus) was immobilized on the surface of a sensor chip. […] The binding kinetics were calculated using a 1:1 Longmuir model built into the analysis software.

[2] = molecular target: T1, recombinant human CTLA4 extracellular …; test: ELISA, immobilised huCTLA-4, pH 6.0, Jun. 27, 2017
Description: (§2) EC₅₀ values at pH 6.0 for binding to human CTLA4 were calculated using the nonlinear fit model (variable slope, four parameters) of GraphPad Prism version 7.03.

[3] = molecular target: T1, recombinant human CTLA4 extracellular …; test: ELISA, immobilised huCTLA-4, pH 6.0, Jul. 11, 2017
Description: as §2

[4] = molecular target: T1, recombinant human CTLA4 extracellular …; test: ELISA, immobilised huCTLA-4, pH 6.0, mean +/- SD
Description: as §2

[5] = molecular target: T2, cynomolgus CTLA4 expressed on the cell surface of CHO cells (cynomolgus, UniProt G7PL88 36-223); test: FACS, CHO cells expressing cynomolgus CTLA4 (CHO-cynoCTLA-4), pH 6.0, MFI; no unit in the table, unit from the axis Log Antibodies [ng/ml]
T2 construct: whole, on cells; also called CHO-cynoCTLA4
T2 sequence: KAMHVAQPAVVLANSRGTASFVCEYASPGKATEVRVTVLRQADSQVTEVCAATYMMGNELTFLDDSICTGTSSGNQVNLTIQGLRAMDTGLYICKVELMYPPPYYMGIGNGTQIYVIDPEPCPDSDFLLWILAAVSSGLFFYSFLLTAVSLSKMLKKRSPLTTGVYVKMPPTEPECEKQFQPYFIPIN
Description: (§3) The amount of antibodies bound on the cells was quantified using anti-human IgG antibody conjugated to fluorophores. EC₅₀ values at pH 6.0 and 7.4 for binding to cells were calculated using the nonlinear fit (variable slope, four parameters) model built into GraphPad Prism software (version 7.03). The expression levels of human CTLA4 or cynomolgus CTLA4 on the surface of the CHO cells were determined using a BD QuantiBRITE™ PE kit.
(§4) At least two independent duplicate FACS experiments were performed for each antibody using each of the cell lines. The binding activities at different concentrations of the antibodies are plotted in these figures.

[6] = molecular target: T1, recombinant human CTLA4 extracellular …; test: SPR, human CTLA4 ECD immobilised, pH 6.0, run 2
Description: as §1

[7] = molecular target: T1, recombinant human CTLA4 extracellular …; test: SPR, human CTLA4 ECD immobilised, pH 6.0, run 1
Description: as §1

[8] = molecular target: T3, recombinant cynomolgus CTLA4 extracellular domain (cynomolgus, UniProt G7PL88 36-161); test: ELISA, immobilised cynoCTLA-4, pH 6.0, Jun. 27, 2017; ELISA, pH 6.0, Jun. 27, 2017
T3 construct: extracellular domain; also called cynoCTLA-4; cynoCTLA4
T3 sequence: T1 sequence (looked up) with S14N, I18T, L106M

[9] = molecular target: T3, recombinant cynomolgus CTLA4 …; test: ELISA, immobilised cynoCTLA-4, pH 6.0, Jun. 19, 2017; ELISA, pH 6.0, Jun. 19, 2017
[10] = molecular target: T1, recombinant human CTLA4 extracellular …; test: SPR, human CTLA4 ECD immobilised, pH 7.4, run 2
Description: as §1

[11] = molecular target: T1, recombinant human CTLA4 extracellular …; test: SPR, human CTLA4 ECD immobilised, pH 6.0, AVG
Description: as §1

[12] = molecular target: T1, recombinant human CTLA4 extracellular …; test: SPR, human CTLA4 ECD immobilised, pH 7.4, run 3
Description: as §1

[13] = molecular target: T4, human CTLA4 expressed on the cell surface of CHO cells (human, UniProt P16410 36-223); test: FACS, CHO cells expressing human CTLA4 (CHO-huCTLA-4), pH 6.0, MFI; no unit in the table, unit from the axis Log Antibodies [ng/ml]
T4 construct: whole, on cells; also called CHO-huCTLA4; huCTLA4
T4 sequence (looked up): T2 sequence with N14S, T18I, M106L
Description: as §3, §4

[14] = molecular target: T1, recombinant human CTLA4 extracellular …; test: SPR, human CTLA4 ECD immobilised, pH 7.4, AVG
Description: as §1

[15] = molecular target: T3, recombinant cynomolgus CTLA4 …; test: ELISA, immobilised cynoCTLA-4, pH 6.0, mean +/- SD; ELISA, pH 6.0, mean of the two runs
[16] = molecular target: T4, human CTLA4 expressed on the cell …; test: FACS on CHO-huCTLA4 cells, pH 6.0, mean
Description: as §3

- factor by which the binding activity drops from pH 6.0 to pH 7.4 [1]: ~2 fold
- EC50 [2]: 0.00959 µg/mL
- EC50 [3]: 0.00835 µg/mL
- EC50 [4]: 0.00818 µg/mL
- EC50 [5]: 0.242 µg/mL
- Kd [6]: 481 pM
- koff [6]: 0.000604 s⁻¹
- kon [6]: 1.26e+06 M⁻¹ s⁻¹
- Kd [7]: 472 pM
- koff [7]: 0.000631 s⁻¹
- kon [7]: 1.34e+06 M⁻¹ s⁻¹
- EC50 [8]: 0.0397 µg/mL
- EC50 [9]: 0.0159 µg/mL
- Kd [10]: 781 pM
- koff [10]: 0.000669 s⁻¹
- kon [10]: 857000 M⁻¹ s⁻¹
- Kd [11]: 499 pM
- koff [11]: 0.000611 s⁻¹
- kon [11]: 1.23e+06 M⁻¹ s⁻¹
- Kd [12]: 1120 pM
- koff [12]: 0.000943 s⁻¹
- kon [12]: 844000 M⁻¹ s⁻¹
- EC50 [13]: 0.247 µg/mL
- Kd [14]: 1100 pM
- koff [14]: 0.000958 s⁻¹
- kon [14]: 869000 M⁻¹ s⁻¹
- EC50 [15]: 0.0276 µg/mL
- EC50 [16]: 0.35 µg/mL
B1: BA-087-05-19 (antibody, V domains shown)
VH: EVQLVESGGGLVQPGGSLRLSCAASGFTFSHYTMHWVRQAPGKGLEWVSFISYDGNNKYYADSVKGRFTISRDNSKNTLYLQMNSLRAEDTAVYYCARTGWLGPFDYWGQGTLVTVSS
VL: AIQLTQSPSSLSASVGDRVTITCRASQYVGSSYLAWYLQKPGQSPQLLIYGAFSRATGIPARFSGSGSGTEFTLTISSLQSEDFAVYYCQQDGSSPWTFGQGTKVEIK
notes: Detected with anti-human IgG and a molecular weight of 146 kDa was used in SPR, so it was tested as a whole IgG; also called BA-087-05-019; BA-087-05-19 (# 6972)

- factor by which the binding activity drops from pH 6.0 to pH 7.4 [1]: ~100 fold
- EC50 [2]: 0.0146 µg/mL
- EC50 [3]: 0.00617 µg/mL
- EC50 [4]: 0.00978 µg/mL
- EC50 [5]: 0.354 µg/mL
- Kd [6]: 463 pM
- koff [6]: 0.00154 s⁻¹
- kon [6]: 3.32e+06 M⁻¹ s⁻¹
- Kd [7]: 365 pM
- koff [7]: 0.0012 s⁻¹
- kon [7]: 3.29e+06 M⁻¹ s⁻¹
- EC50 [8]: 0.292 µg/mL
- EC50 [9]: 0.259 µg/mL
- Kd [10]: 14900 pM
- Kd [11]: 451 pM
- koff [11]: 0.00163 s⁻¹
- kon [11]: 3.56e+06 M⁻¹ s⁻¹
- Kd [12]: 68300 pM
- koff [12]: 0.0132 s⁻¹
- kon [12]: 194000 M⁻¹ s⁻¹
- EC50 [13]: 0.168 µg/mL
- Kd [14]: 45200 pM
- koff [14]: 0.0166 s⁻¹
- kon [14]: 519000 M⁻¹ s⁻¹
- EC50 [15]: 0.276 µg/mL
- EC50 [16]: 0.243 µg/mL
B2: BA-087-08-32 (antibody, V domains shown)
VH: EVQLVQSGAEVKKPGATVKISCKVSGFTFSHYTMHWIRQSPSRGLEWLGFISYDGNYKYYADSVKGRFTISRDNAKNSLYLQMNSLRAEDTAVYYCARTGWLGPFDYWGQGTLVTVSS
VL: EIVMTQSPATLSVSPGERATLSCRASQSVGSSYLAWYQQKPGKAPKLLIYGAFSRATGVPSRFSGSGSGTDFTLTISSLQPEDFATYYCQQDGSSPWTFGQGTKVEIK
notes: Detected with anti-human IgG and a molecular weight of 146 kDa was used in SPR, so it was tested as a whole IgG; also called BA-087-08-032; BA-087-08-32 (# 6978)

— patent US20210403565A1 (BIOATLA, published 2021)
